Assay results as given in patent publication US20140087995A1 (published 2014).
Each block holds one binder with its values, some of them ahead of it. Numbered stars: 1 amine (or outer) side, 2 acyl side, 3 side chain; on linkers, the order of the positions; unused ones are H or OH. Bridge positions count the residues as written; N and C are the ends. Side chains are listed from the residue outwards. Ends that are not written are not given here. * marks the point of attachment. C20 diacid = O=C(O)CCCCCCCCCCCCCCCCCCC(=O)*; γGlu = O=C(O)[C@H](CCC(=O)[*:2])N[*:1]

How the values were obtained:
[1] = target: T1, human calcitonin receptor (human, UniProt P30988 25-474); experiment: IC50 at hCTR divided by IC50 at hAmylin-R (SPA competition assays V and VII)
T1 construct: whole, on cells; Assayed as cell membranes of BHK tk'ts 13 cells stably transfected with the human calcitonin receptor (Assay VII); also called hCTR; hCT
T1 sequence (looked up): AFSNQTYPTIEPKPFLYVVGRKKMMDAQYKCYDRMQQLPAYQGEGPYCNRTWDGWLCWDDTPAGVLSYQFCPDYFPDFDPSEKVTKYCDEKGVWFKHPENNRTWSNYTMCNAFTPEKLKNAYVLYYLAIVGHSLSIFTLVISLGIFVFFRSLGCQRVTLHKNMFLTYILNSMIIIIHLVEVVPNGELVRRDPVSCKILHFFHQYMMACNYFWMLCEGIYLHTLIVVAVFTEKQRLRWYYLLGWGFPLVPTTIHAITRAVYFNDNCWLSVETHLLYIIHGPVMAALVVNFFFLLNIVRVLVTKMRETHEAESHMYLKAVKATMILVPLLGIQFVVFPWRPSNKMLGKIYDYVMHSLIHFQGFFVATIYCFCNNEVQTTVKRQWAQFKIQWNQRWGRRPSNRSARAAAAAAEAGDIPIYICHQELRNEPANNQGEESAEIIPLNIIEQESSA
Method in brief: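 Scintillation proximity competition binding on cell membranes at 35 ng/μL with SPA beads, in 50 mM Hepes pH 7.4, 1 mM CaCl2, 5 mM MgCl₂, 0.1% OA, 0.02% Tween20. Incubated 120 min at 25° C with shaking. IC₅₀ from one-site competition fit.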

[2] = target: T1, human calcitonin receptor; experiment: SPA competition vs 125I-calcitonin, membranes of BHK cells with human calcitonin receptor (Assay VII)
Method in brief: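 BHK hCTR membranes 35 ng/μL + SPA beads 0.05 mg/well; buffer 50 mM Hepes pH 7.4, 1 mM CaCl2, 5 mM MgCl₂, 0.1% OA, 0.02% Tween20. 120 min, 25° C., shaking. Scintillation count; IC50 by one-site binding competition.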

Ratio hCT/hAmylin binding [1]: 159
IC50 [2]: 133 nM
B1: N^ε1-[(4S)-4-carboxy-4-[[(4S)-4-carboxy-4-(19-carboxynonadecanoylamino)butanoyl]amino]butanoyl]-[Arg17,Pro21,Pro27,His34]-h-amylin (peptide)
peptide: K([γGlu-γGlu-C20 diacid])CNTATCATQRLANFLRHSSPNFGAIPSSTNVGHNTY-NH2
modifications: disulfide 2-7; N-terminus assumed
SMILES: CC[C@H](C)[C@H](NC(=O)[C@H](C)NC(=O)CNC(=O)[C@H](Cc1ccccc1)NC(=O)[C@H](CC(N)=O)NC(=O)[C@@H]1CCCN1C(=O)[C@H](CO)NC(=O)[C@H](CO)NC(=O)[C@H](Cc1c[nH]cn1)NC(=O)[C@H](CCCNC(=N)N)NC(=O)[C@H](CC(C)C)NC(=O)[C@H](Cc1ccccc1)NC(=O)[C@H](CC(N)=O)NC(=O)[C@H](C)NC(=O)[C@H](CC(C)C)NC(=O)[C@H](CCCNC(=N)N)NC(=O)[C@H](CCC(N)=O)NC(=O)[C@@H](NC(=O)[C@H](C)NC(=O)[C@@H]1CSSC[C@H](NC(=O)[C@@H](N)CCCCNC(=O)CC[C@H](NC(=O)CC[C@H](NC(=O)CCCCCCCCCCCCCCCCCCC(=O)O)C(=O)O)C(=O)O)C(=O)N[C@@H](CC(N)=O)C(=O)N[C@@H]([C@@H](C)O)C(=O)N[C@@H](C)C(=O)N[C@@H]([C@@H](C)O)C(=O)N1)[C@@H](C)O)C(=O)N1CCC[C@H]1C(=O)N[C@@H](CO)C(=O)N[C@@H](CO)C(=O)N[C@H](C(=O)N[C@@H](CC(N)=O)C(=O)N[C@H](C(=O)NCC(=O)N[C@@H](Cc1c[nH]cn1)C(=O)N[C@@H](CC(N)=O)C(=O)N[C@H](C(=O)N[C@@H](Cc1ccc(O)cc1)C(N)=O)[C@@H](C)O)C(C)C)[C@@H](C)O
notes: also called compound 86

Ratio hCT/hAmylin binding [1]: 46.5
IC50 [2]: 34.9 nM
B2: N^ε1-[(4S)-4-carboxy-4-[[(4S)-4-carboxy-4-(19-carboxynonadecanoylamino)butanoyl]amino]butanoyl]-[Glu14,Arg17,Pro21,Pro27,Arg34]-h-amylin (peptide)
peptide: K([γGlu-γGlu-C20 diacid])CNTATCATQRLAEFLRHSSPNFGAIPSSTNVGRNTY-NH2
modifications: disulfide 2-7; N-terminus assumed
SMILES: CC[C@H](C)[C@H](NC(=O)[C@H](C)NC(=O)CNC(=O)[C@H](Cc1ccccc1)NC(=O)[C@H](CC(N)=O)NC(=O)[C@@H]1CCCN1C(=O)[C@H](CO)NC(=O)[C@H](CO)NC(=O)[C@H](Cc1c[nH]cn1)NC(=O)[C@H](CCCNC(=N)N)NC(=O)[C@H](CC(C)C)NC(=O)[C@H](Cc1ccccc1)NC(=O)[C@H](CCC(=O)O)NC(=O)[C@H](C)NC(=O)[C@H](CC(C)C)NC(=O)[C@H](CCCNC(=N)N)NC(=O)[C@H](CCC(N)=O)NC(=O)[C@@H](NC(=O)[C@H](C)NC(=O)[C@@H]1CSSC[C@H](NC(=O)[C@@H](N)CCCCNC(=O)CC[C@H](NC(=O)CC[C@H](NC(=O)CCCCCCCCCCCCCCCCCCC(=O)O)C(=O)O)C(=O)O)C(=O)N[C@@H](CC(N)=O)C(=O)N[C@@H]([C@@H](C)O)C(=O)N[C@@H](C)C(=O)N[C@@H]([C@@H](C)O)C(=O)N1)[C@@H](C)O)C(=O)N1CCC[C@H]1C(=O)N[C@@H](CO)C(=O)N[C@@H](CO)C(=O)N[C@H](C(=O)N[C@@H](CC(N)=O)C(=O)N[C@H](C(=O)NCC(=O)N[C@@H](CCCNC(=N)N)C(=O)N[C@@H](CC(N)=O)C(=O)N[C@H](C(=O)N[C@@H](Cc1ccc(O)cc1)C(N)=O)[C@@H](C)O)C(C)C)[C@@H](C)O
notes: also called compound 88

Ratio hCT/hAmylin binding [1]: 4.3
IC50 [2]: 5.14 nM
B3: N^ε21-[(4S)-4-carboxy-4-[[(4S)-4-carboxy-4-(19-carboxynonadecanoylamino)butanoyl]amino]butanoyl]-[Asp14,Arg17,Lys21,Pro27,Asp35]-h-amylin (peptide)
peptide: KCNTATCATQRLADFLRHSSK([γGlu-γGlu-C20 diacid])NFGAIPSSTNVGSDTY-NH2
modifications: disulfide 2-7; N-terminus assumed
SMILES: CC[C@H](C)[C@H](NC(=O)[C@H](C)NC(=O)CNC(=O)[C@H](Cc1ccccc1)NC(=O)[C@H](CC(N)=O)NC(=O)[C@H](CCCCNC(=O)CC[C@H](NC(=O)CC[C@H](NC(=O)CCCCCCCCCCCCCCCCCCC(=O)O)C(=O)O)C(=O)O)NC(=O)[C@H](CO)NC(=O)[C@H](CO)NC(=O)[C@H](Cc1c[nH]cn1)NC(=O)[C@H](CCCNC(=N)N)NC(=O)[C@H](CC(C)C)NC(=O)[C@H](Cc1ccccc1)NC(=O)[C@H](CC(=O)O)NC(=O)[C@H](C)NC(=O)[C@H](CC(C)C)NC(=O)[C@H](CCCNC(=N)N)NC(=O)[C@H](CCC(N)=O)NC(=O)[C@@H](NC(=O)[C@H](C)NC(=O)[C@@H]1CSSC[C@H](NC(=O)[C@@H](N)CCCCN)C(=O)N[C@@H](CC(N)=O)C(=O)N[C@@H]([C@@H](C)O)C(=O)N[C@@H](C)C(=O)N[C@@H]([C@@H](C)O)C(=O)N1)[C@@H](C)O)C(=O)N1CCC[C@H]1C(=O)N[C@@H](CO)C(=O)N[C@@H](CO)C(=O)N[C@H](C(=O)N[C@@H](CC(N)=O)C(=O)N[C@H](C(=O)NCC(=O)N[C@@H](CO)C(=O)N[C@@H](CC(=O)O)C(=O)N[C@H](C(=O)N[C@@H](Cc1ccc(O)cc1)C(N)=O)[C@@H](C)O)C(C)C)[C@@H](C)O
notes: also called compound 59

Ratio hCT/hAmylin binding [1]: 35.6
IC50 [2]: 22.5 nM
B4: N^ε1-[(4S)-4-carboxy-4-[[(4S)-4-carboxy-4-(19-carboxynonadecanoylamino)butanoyl]amino]butanoyl]-[Glu14,Arg17,Pro21,Pro27,His34]-h-amylin (peptide)
peptide: K([γGlu-γGlu-C20 diacid])CNTATCATQRLAEFLRHSSPNFGAIPSSTNVGHNTY-NH2
modifications: disulfide 2-7; N-terminus assumed
SMILES: CC[C@H](C)[C@H](NC(=O)[C@H](C)NC(=O)CNC(=O)[C@H](Cc1ccccc1)NC(=O)[C@H](CC(N)=O)NC(=O)[C@@H]1CCCN1C(=O)[C@H](CO)NC(=O)[C@H](CO)NC(=O)[C@H](Cc1c[nH]cn1)NC(=O)[C@H](CCCNC(=N)N)NC(=O)[C@H](CC(C)C)NC(=O)[C@H](Cc1ccccc1)NC(=O)[C@H](CCC(=O)O)NC(=O)[C@H](C)NC(=O)[C@H](CC(C)C)NC(=O)[C@H](CCCNC(=N)N)NC(=O)[C@H](CCC(N)=O)NC(=O)[C@@H](NC(=O)[C@H](C)NC(=O)[C@@H]1CSSC[C@H](NC(=O)[C@@H](N)CCCCNC(=O)CC[C@H](NC(=O)CC[C@H](NC(=O)CCCCCCCCCCCCCCCCCCC(=O)O)C(=O)O)C(=O)O)C(=O)N[C@@H](CC(N)=O)C(=O)N[C@@H]([C@@H](C)O)C(=O)N[C@@H](C)C(=O)N[C@@H]([C@@H](C)O)C(=O)N1)[C@@H](C)O)C(=O)N1CCC[C@H]1C(=O)N[C@@H](CO)C(=O)N[C@@H](CO)C(=O)N[C@H](C(=O)N[C@@H](CC(N)=O)C(=O)N[C@H](C(=O)NCC(=O)N[C@@H](Cc1c[nH]cn1)C(=O)N[C@@H](CC(N)=O)C(=O)N[C@H](C(=O)N[C@@H](Cc1ccc(O)cc1)C(N)=O)[C@@H](C)O)C(C)C)[C@@H](C)O
notes: also called compound 87

Ratio hCT/hAmylin binding [1]: 28
IC50 [2]: 32.5 nM
B5: N^ε1-[(4S)-4-carboxy-4-[[(4S)-4-carboxy-4-(19-carboxynonadecanoylamino)butanoyl]amino]butanoyl]-[Glu14,Arg17,Pro21,Pro27,Arg35]-h-amylin (peptide)
peptide: K([γGlu-γGlu-C20 diacid])CNTATCATQRLAEFLRHSSPNFGAIPSSTNVGSRTY-NH2
modifications: disulfide 2-7; N-terminus assumed
SMILES: CC[C@H](C)[C@H](NC(=O)[C@H](C)NC(=O)CNC(=O)[C@H](Cc1ccccc1)NC(=O)[C@H](CC(N)=O)NC(=O)[C@@H]1CCCN1C(=O)[C@H](CO)NC(=O)[C@H](CO)NC(=O)[C@H](Cc1c[nH]cn1)NC(=O)[C@H](CCCNC(=N)N)NC(=O)[C@H](CC(C)C)NC(=O)[C@H](Cc1ccccc1)NC(=O)[C@H](CCC(=O)O)NC(=O)[C@H](C)NC(=O)[C@H](CC(C)C)NC(=O)[C@H](CCCNC(=N)N)NC(=O)[C@H](CCC(N)=O)NC(=O)[C@@H](NC(=O)[C@H](C)NC(=O)[C@@H]1CSSC[C@H](NC(=O)[C@@H](N)CCCCNC(=O)CC[C@H](NC(=O)CC[C@H](NC(=O)CCCCCCCCCCCCCCCCCCC(=O)O)C(=O)O)C(=O)O)C(=O)N[C@@H](CC(N)=O)C(=O)N[C@@H]([C@@H](C)O)C(=O)N[C@@H](C)C(=O)N[C@@H]([C@@H](C)O)C(=O)N1)[C@@H](C)O)C(=O)N1CCC[C@H]1C(=O)N[C@@H](CO)C(=O)N[C@@H](CO)C(=O)N[C@H](C(=O)N[C@@H](CC(N)=O)C(=O)N[C@H](C(=O)NCC(=O)N[C@@H](CO)C(=O)N[C@@H](CCCNC(=N)N)C(=O)N[C@H](C(=O)N[C@@H](Cc1ccc(O)cc1)C(N)=O)[C@@H](C)O)C(C)C)[C@@H](C)O
notes: also called compound 89

Ratio hCT/hAmylin binding [1]: 60.8
IC50 [2]: 10.3 nM
B6: N^ε1-[(4S)-4-carboxy-4-(19-carboxynonadecanoylamino)butanoyl]-[His14,Arg17,Pro21,Pro27]-h-amylin (peptide)
peptide: K([γGlu-C20 diacid])CNTATCATQRLAHFLRHSSPNFGAIPSSTNVGSNTY-NH2
modifications: disulfide 2-7; N-terminus assumed
SMILES: CC[C@H](C)[C@H](NC(=O)[C@H](C)NC(=O)CNC(=O)[C@H](Cc1ccccc1)NC(=O)[C@H](CC(N)=O)NC(=O)[C@@H]1CCCN1C(=O)[C@H](CO)NC(=O)[C@H](CO)NC(=O)[C@H](Cc1c[nH]cn1)NC(=O)[C@H](CCCNC(=N)N)NC(=O)[C@H](CC(C)C)NC(=O)[C@H](Cc1ccccc1)NC(=O)[C@H](Cc1c[nH]cn1)NC(=O)[C@H](C)NC(=O)[C@H](CC(C)C)NC(=O)[C@H](CCCNC(=N)N)NC(=O)[C@H](CCC(N)=O)NC(=O)[C@@H](NC(=O)[C@H](C)NC(=O)[C@@H]1CSSC[C@H](NC(=O)[C@@H](N)CCCCNC(=O)CC[C@H](NC(=O)CCCCCCCCCCCCCCCCCCC(=O)O)C(=O)O)C(=O)N[C@@H](CC(N)=O)C(=O)N[C@@H]([C@@H](C)O)C(=O)N[C@@H](C)C(=O)N[C@@H]([C@@H](C)O)C(=O)N1)[C@@H](C)O)C(=O)N1CCC[C@H]1C(=O)N[C@@H](CO)C(=O)N[C@@H](CO)C(=O)N[C@H](C(=O)N[C@@H](CC(N)=O)C(=O)N[C@H](C(=O)NCC(=O)N[C@@H](CO)C(=O)N[C@@H](CC(N)=O)C(=O)N[C@H](C(=O)N[C@@H](Cc1ccc(O)cc1)C(N)=O)[C@@H](C)O)C(C)C)[C@@H](C)O
notes: also called compound 70
